Where a chain is given by its changes, count along the chain named. Where two headings read alike, the source gives them in different places. Values belong to the binder of their own block, whether it stands above or below them.
Tests used:
[1] = target: T1, THP-1细胞表面的LILRB4 (human, UniProt Q8NHJ6 22-448); assay: flow cytometry on THP-1 cells
T1 construct: whole, on cells; Endogenous LILRB4 on THP-1 cells; also called 人单核细胞白血病细胞(THP-1)表面LILRB4

[2] = target: T2, LILRB4抗原 (人LILRB4蛋白胞外段) (human, UniProt Q8NHJ6 22-259); assay: ELISA, coated LILRB4, anti-human IgG-HRP
T2 construct: extracellular domain; also called 白细胞免疫球蛋白样受体亚家族B成员4

[3] = target: T1, THP-1细胞表面的LILRB4; assay: cell-based or functional assay
[4] = target: T1, THP-1细胞表面的LILRB4; assay: cell-based or functional assay; remark: listed apart in the source
[5] = target: T1, THP-1细胞表面的LILRB4; assay: flow cytometry competition on THP-1 cells; competitor FITC-labelled ApoE
[6] = target: T1, THP-1细胞表面的LILRB4; assay: cell-based or functional assay; remark: listed apart in the source
[7] = target: T3, LILRA1 (UniProt O75019 17-461, limits assumed); assay: ELISA, coated protein 100ng/well
T3 construct: construct not described

[8] = target: T4, LILRA2 (UniProt Q8N149 24-449, limits assumed); assay: ELISA, coated protein 100ng/well
T4 construct: construct not described

[9] = target: T5, LILRA3 (UniProt Q8N6C8 24-439); assay: ELISA, coated protein 100ng/well
T5 construct: construct not described

[10] = target: T6, LILRA4 (UniProt P59901 24-446, limits assumed); assay: ELISA, coated protein 100ng/well
T6 construct: construct not described

[11] = target: T7, LILRA5 (UniProt A6NI73 42-268, limits assumed); assay: ELISA, coated protein 100ng/well
T7 construct: construct not described

[12] = target: T8, LILRA6 (UniProt Q6PI73 24-447, limits assumed); assay: ELISA, coated protein 100ng/well
T8 construct: construct not described

[13] = target: T9, LILRB1 (UniProt Q8NHL6 24-461, limits assumed); assay: ELISA, coated protein 100ng/well
T9 construct: construct not described

[14] = target: T10, LILRB2 (UniProt Q8N423 22-460, limits assumed); assay: ELISA, coated protein 100ng/well
T10 construct: construct not described

[15] = target: T11, LILRB3 (UniProt O75022 24-443, limits assumed); assay: ELISA, coated protein 100ng/well
T11 construct: construct not described

[16] = target: T12, LILRB5 (UniProt O75023 24-458, limits assumed); assay: ELISA, coated protein 100ng/well
T12 construct: construct not described

[17] = target: T2, LILRB4抗原 (人LILRB4蛋白胞外段); assay: ELISA, coated LILRB4, anti-mouse IgG-HRP
[18] = target: T2, LILRB4抗原 (人LILRB4蛋白胞外段); assay: ELISA, coated protein 100ng/well, antibody 50μg/mL
[19] = target: T3, LILRA1; assay: ELISA, coated protein 100ng/well, antibody 50μg/mL
[20] = target: T4, LILRA2; assay: ELISA, coated protein 100ng/well, antibody 50μg/mL
[21] = target: T5, LILRA3; assay: ELISA, coated protein 100ng/well, antibody 50μg/mL
[22] = target: T6, LILRA4; assay: ELISA, coated protein 100ng/well, antibody 50μg/mL
[23] = target: T7, LILRA5; assay: ELISA, coated protein 100ng/well, antibody 50μg/mL
[24] = target: T8, LILRA6; assay: ELISA, coated protein 100ng/well, antibody 50μg/mL
[25] = target: T9, LILRB1; assay: ELISA, coated protein 100ng/well, antibody 50μg/mL
[26] = target: T10, LILRB2; assay: ELISA, coated protein 100ng/well, antibody 50μg/mL
[27] = target: T11, LILRB3; assay: ELISA, coated protein 100ng/well, antibody 50μg/mL
[28] = target: T12, LILRB5; assay: ELISA, coated protein 100ng/well, antibody 50μg/mL
[29] = target: T1, THP-1细胞表面的LILRB4; assay: flow cytometry on THP-1 cells, FITC anti-mouse IgG
[30] = target: T1, THP-1细胞表面的LILRB4; assay: flow cytometry competition on THP-1 cells; competitor FITC-labelled ApoE; remark: listed apart in the source

T12 sequence (O75023 24-458 limits assumed): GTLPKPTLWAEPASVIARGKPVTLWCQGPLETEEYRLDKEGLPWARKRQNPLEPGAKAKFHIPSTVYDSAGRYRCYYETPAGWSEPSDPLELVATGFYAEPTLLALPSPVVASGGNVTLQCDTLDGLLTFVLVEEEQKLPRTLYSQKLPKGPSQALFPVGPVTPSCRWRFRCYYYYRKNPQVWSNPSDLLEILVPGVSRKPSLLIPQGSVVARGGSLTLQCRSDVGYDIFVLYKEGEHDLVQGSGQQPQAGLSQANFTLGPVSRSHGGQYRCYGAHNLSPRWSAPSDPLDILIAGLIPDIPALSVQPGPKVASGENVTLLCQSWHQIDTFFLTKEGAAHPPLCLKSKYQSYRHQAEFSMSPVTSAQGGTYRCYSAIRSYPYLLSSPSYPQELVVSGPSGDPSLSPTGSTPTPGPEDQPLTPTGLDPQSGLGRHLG
T8 sequence (Q6PI73 24-447 limits assumed): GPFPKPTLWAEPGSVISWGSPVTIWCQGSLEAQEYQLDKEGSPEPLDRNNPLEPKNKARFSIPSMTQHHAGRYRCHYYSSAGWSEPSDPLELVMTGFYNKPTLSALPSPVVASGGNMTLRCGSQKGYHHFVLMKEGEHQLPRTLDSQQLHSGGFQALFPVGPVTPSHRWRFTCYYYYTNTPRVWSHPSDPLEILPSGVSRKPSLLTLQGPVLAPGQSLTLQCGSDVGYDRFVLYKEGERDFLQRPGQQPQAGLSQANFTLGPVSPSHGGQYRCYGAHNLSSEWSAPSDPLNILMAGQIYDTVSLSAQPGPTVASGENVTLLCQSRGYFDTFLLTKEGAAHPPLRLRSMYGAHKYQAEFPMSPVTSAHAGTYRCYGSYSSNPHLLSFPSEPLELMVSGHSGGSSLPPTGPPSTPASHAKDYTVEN
T9 sequence (Q8NHL6 24-461 limits assumed): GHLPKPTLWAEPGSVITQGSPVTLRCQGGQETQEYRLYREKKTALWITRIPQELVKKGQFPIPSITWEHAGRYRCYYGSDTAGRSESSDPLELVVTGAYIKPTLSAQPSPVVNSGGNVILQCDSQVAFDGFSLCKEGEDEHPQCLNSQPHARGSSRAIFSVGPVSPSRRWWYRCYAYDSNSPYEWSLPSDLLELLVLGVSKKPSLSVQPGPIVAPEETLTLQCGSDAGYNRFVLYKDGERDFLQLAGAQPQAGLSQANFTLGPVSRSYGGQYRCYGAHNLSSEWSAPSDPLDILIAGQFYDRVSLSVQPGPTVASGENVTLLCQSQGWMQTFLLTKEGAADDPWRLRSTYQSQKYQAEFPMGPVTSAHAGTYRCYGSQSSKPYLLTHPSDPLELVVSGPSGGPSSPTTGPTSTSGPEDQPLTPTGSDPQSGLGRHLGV
T11 sequence (O75022 24-443 limits assumed): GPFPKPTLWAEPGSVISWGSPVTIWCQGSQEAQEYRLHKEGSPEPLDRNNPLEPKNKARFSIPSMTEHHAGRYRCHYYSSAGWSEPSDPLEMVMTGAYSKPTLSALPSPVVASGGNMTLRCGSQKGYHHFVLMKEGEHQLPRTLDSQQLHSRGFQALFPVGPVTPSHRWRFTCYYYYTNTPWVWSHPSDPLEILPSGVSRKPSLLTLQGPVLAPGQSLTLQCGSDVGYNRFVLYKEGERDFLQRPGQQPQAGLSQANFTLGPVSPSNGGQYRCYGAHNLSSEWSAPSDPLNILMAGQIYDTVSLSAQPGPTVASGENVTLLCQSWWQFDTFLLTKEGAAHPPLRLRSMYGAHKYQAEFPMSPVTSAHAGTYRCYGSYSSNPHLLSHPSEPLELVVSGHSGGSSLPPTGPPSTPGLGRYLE
T6 sequence (P59901 24-446 limits assumed): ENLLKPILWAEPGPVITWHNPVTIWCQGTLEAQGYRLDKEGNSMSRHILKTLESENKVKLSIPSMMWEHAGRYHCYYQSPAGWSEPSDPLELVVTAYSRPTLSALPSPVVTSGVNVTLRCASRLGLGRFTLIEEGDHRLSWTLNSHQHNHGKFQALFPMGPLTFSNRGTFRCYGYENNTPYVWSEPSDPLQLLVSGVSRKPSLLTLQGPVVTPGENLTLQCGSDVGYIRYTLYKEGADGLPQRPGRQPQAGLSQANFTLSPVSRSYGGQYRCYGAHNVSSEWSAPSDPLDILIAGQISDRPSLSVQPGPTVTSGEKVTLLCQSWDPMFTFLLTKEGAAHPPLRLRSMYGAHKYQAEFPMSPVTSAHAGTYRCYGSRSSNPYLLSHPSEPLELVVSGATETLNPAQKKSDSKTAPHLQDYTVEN
T7 sequence (A6NI73 42-268 limits assumed): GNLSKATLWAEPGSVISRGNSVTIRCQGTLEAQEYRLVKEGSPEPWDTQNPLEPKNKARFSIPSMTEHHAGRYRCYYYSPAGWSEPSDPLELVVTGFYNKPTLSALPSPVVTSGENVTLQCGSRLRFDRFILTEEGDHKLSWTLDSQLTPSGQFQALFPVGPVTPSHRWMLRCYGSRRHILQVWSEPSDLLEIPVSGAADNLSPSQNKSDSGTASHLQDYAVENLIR
T5 sequence (Q8N6C8 24-439 limits assumed): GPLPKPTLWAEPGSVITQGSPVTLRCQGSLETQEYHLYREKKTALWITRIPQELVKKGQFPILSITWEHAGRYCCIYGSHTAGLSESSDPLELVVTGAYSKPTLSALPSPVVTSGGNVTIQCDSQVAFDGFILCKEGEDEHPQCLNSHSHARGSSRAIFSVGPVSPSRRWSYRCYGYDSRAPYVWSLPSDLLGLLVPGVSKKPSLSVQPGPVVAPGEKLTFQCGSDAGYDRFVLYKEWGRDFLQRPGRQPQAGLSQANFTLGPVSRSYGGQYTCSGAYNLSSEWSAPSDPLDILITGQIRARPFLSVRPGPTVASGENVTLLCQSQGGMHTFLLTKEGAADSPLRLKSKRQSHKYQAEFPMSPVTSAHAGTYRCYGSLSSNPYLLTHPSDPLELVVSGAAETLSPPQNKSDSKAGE
T10 sequence (Q8N423 22-460 limits assumed): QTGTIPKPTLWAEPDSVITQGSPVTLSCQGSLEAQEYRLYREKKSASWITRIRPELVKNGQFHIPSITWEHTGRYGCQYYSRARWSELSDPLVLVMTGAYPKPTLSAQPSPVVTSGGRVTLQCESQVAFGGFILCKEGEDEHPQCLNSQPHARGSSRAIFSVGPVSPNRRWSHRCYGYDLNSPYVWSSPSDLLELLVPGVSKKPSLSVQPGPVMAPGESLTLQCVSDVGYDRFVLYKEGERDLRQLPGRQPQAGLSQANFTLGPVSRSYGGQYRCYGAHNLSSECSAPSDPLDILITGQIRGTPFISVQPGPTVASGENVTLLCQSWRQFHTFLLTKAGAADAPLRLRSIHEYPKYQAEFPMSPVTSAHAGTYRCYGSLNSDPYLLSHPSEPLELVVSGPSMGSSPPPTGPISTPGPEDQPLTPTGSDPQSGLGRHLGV
T4 sequence (Q8N149 24-449 limits assumed): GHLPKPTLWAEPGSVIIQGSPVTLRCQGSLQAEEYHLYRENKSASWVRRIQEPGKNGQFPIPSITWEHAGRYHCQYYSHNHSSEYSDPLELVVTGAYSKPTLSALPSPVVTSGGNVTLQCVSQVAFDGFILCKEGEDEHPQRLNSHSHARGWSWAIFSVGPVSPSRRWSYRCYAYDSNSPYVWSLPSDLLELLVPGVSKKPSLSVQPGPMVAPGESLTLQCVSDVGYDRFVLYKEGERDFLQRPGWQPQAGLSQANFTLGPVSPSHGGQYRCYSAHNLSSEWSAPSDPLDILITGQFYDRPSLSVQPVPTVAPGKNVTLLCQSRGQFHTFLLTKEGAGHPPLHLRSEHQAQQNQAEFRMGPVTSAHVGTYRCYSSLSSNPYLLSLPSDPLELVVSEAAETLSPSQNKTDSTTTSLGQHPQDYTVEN
T3 sequence (O75019 17-461 limits assumed): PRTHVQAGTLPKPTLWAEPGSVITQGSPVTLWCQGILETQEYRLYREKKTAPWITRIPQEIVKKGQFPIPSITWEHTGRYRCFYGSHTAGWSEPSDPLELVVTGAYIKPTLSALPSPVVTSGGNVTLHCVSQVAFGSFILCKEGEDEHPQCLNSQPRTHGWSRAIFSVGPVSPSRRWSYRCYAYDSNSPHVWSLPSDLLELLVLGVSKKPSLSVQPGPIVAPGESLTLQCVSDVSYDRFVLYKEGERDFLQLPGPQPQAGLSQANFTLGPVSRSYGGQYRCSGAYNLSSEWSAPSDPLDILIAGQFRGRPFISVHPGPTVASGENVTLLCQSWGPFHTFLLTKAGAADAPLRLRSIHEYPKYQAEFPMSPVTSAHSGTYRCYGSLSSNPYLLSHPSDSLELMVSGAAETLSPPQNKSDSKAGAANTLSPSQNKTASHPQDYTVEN

EC50 [1]: 0.445 µg/mL | EC50 [2]: 0.0655 µg/mL
B1: 嵌合抗体CB-Ⅰ (MB-Ⅰ variable regions, human IgG1, Ck) (antibody)
heavy: not shown
light: DIVMTQSPSSLSASLGDRVTISCRASQDISNYLNWYQQKPDGTVKLLIYYTSRLHSGVPSRFSGSGSGTDYSLTISNLEQEDIATYFCQQGNTLPPTFGGGTKLEIKRTVAAPSVFIFPPSDEQLKSGTASVVCLLNNFYPREAKVQWKVDNALQSGNSQESVTEQDSKDSTYSLSSTLTLSKADYEKHKVYACEVTHQGLSSPVTKSFNRGEC
notes: also called CB-I

EC50 [2]: 0.343 µg/mL
B2: 人源化抗体HB-Ⅰ (human IgG1, Ck) (antibody, V domains shown)
VH: QVQLVQSGAEVKKPGASVKVSCKASGYTFTNYWMHWVRQAPGQGLEWIGEINPSNGRTNYNEKFKTRATLTVDTSTSTAYMELSSLRSEDTAVYYCARWGQLGLREGYYAVDYWGQGTLVTVSS
VL: DIQMTQSPSSLSASVGDRVTITCRASQDISNYLNWYQQKPGKAPKLLIYYTSRLHSGVPSRFSGSGSGTDYTFTISSLQPEDIATYYCQQGNTLPPTFGGGTKVEIKR
notes: also called HB-I

IC50 of inhibition of ARG1 secretion by THP-1 cells with ApoE (arginase activity) [3]: 250 µg/mL | IC50, NF-κB luciferase reporter in THP-1-NF-κB-Luc cells stimulated with ApoE [4]: 2.68 µg/mL | EC50 [1]: 0.179 µg/mL | EC50 [2]: 0.0154 µg/mL | IC50 [5]: 2.75 µg/mL
B3: 人源化抗体HA-Ⅱ (human IgG1, Ck) (antibody, V domains shown)
VH: EVQLVESGGGLVKPGGSLRLSCAASGFTFSSYTMSWVRQAPGKGLEWVATISSGGTYTYYPDSVKGRFTISRDNAKNSLYLQMNSLRAEDTAVYYCARDGYDGFDYWGQGTTVTVSS
VL: DIVMTQTPLSLSVTPGQPASISCRSSQSLAHSNGNTYLHWYLQKPGQSPQLLIYKVSNRFSGVPDRFSGSGSGTDFTLKISRVEAEDVGVYFCSQSTHVPTFGGGTKVEIKR
notes: also called HA-II

IC50 of inhibition of ARG1 secretion by THP-1 cells with ApoE (arginase activity) [3]: 98.5 µg/mL | IC50, NF-κB luciferase reporter in THP-1-NF-κB-Luc cells stimulated with ApoE [4]: 3.44 µg/mL | EC50 [1]: 0.186 µg/mL | EC50 [2]: 0.014 µg/mL | IC50 [5]: 2.56 µg/mL
B4: 人源化抗体HA-Ⅲ (human IgG1, Ck) (antibody, V domains shown)
VH: B3 VH with A97T
VL: B3 VL with Q50K
notes: also called HA-III

IC50 of inhibition of ARG1 secretion by THP-1 cells with ApoE (arginase activity) [3]: 31.2 µg/mL | IC50, NF-κB luciferase reporter in THP-1-NF-κB-Luc cells stimulated with ApoE [4]: 0.756 µg/mL | EC50 [1]: 0.181 µg/mL | EC50 [2]: 0.0174 µg/mL | IC50 [5]: 0.48 µg/mL
B5: 人源化抗体HA-Ⅰ (human IgG1, Ck) (antibody, V domains shown)
VH: B3 VH with A49S
VL: B3 VL with F92Y
notes: also called HA-I

IC50 of inhibition of ARG1 secretion by THP-1 cells with ApoE (arginase activity) [6]: 46 µg/mL | binding result [7]: no binding (tested: 50μg/mL) | binding result [8]: no binding (tested: 50μg/mL) | binding result [9]: no binding (tested: 50μg/mL) | binding result [10]: no binding (tested: 50μg/mL) | binding result [11]: no binding (tested: 50μg/mL) | binding result [12]: no binding (tested: 50μg/mL) | binding result [13]: no binding (tested: 50μg/mL) | binding result [14]: no binding (tested: 50μg/mL) | binding result [15]: no binding (tested: 50μg/mL) | binding result [16]: no binding (tested: 50μg/mL) | EC50 [17]: 0.0128 µg/mL | OD 450nm/630nm [18]: 2.9 OD | OD 450nm/630nm [19]: 0.022 OD | OD 450nm/630nm [20]: 0.024 OD | OD 450nm/630nm [21]: 0.056 OD | OD 450nm/630nm [22]: 0.028 OD | OD 450nm/630nm [23]: 0.045 OD | OD 450nm/630nm [24]: 0.026 OD | OD 450nm/630nm [25]: 0.038 OD | OD 450nm/630nm [26]: 0.055 OD | OD 450nm/630nm [27]: 0.022 OD | OD 450nm/630nm [28]: 0.016 OD | EC50 [29]: 0.351 µg/mL | IC50 [30]: 0.44 µg/mL
B6: MB-Ⅰ 鼠源抗LILRB4单克隆抗体 (mouse IgG1, Ck) (antibody)
heavy: QVQLQESGAELVKPGASVKLSCKASGYTFTNYWMHWVKQRPGQGLEWIGEINPSNGRTNYNEKFKTKATLTVDKSSSTAYMQLSSLTSEDSAVYYCARWGQLGLREGYYAVDYWGQGTSVTVSSAKTTPPSVYPLAPGSAAQTNSMVTLGCLVKGYFPEPVTVTWNSGSLSSGVHTFPAVLQSDLYTLSSSVTVPSSTWPSETVTCNVAHPASSTKVDKKIVPRDCGCKPCICTVPEVSSVFIFPPKPKDVLTITLTPKVTCVVVDISKDDPEVQFSWFVDDVEVHTAQTQPREEQFNSTFRSVSELPIMHQDWLNGKEFKCRVNSAAFPAPIEKTISKTKGRPKAPQVYTIPPPKEQMAKDKVSLTCMITDFFPEDITVEWQWNGQPAENYKNTQPIMDTDGSYFVYSKLNVQKSNWEAGNTFTCSVLHEGLHNHHTEKSLSHSPG
light: DIVMTQSPSSLSASLGDRVTISCRASQDISNYLNWYQQKPDGTVKLLIYYTSRLHSGVPSRFSGSGSGTDYSLTISNLEQEDIATYFCQQGNTLPPTFGGGTKLEIKADAAPTVSIFPPSSEQLTSGGASVVCFLNNFYPKDINVKWKIDGSERQNGVLNSWTDQDSKDSTYSMSSTLTLTKDEYERHNSYTCEATHKTSTSPIVKSFNRNEC
notes: also called MB-I; 鼠源抗体MB-Ⅰ

EC50 [1]: 0.2 µg/mL | EC50 [2]: 0.0178 µg/mL
B7: 嵌合抗体CA-Ⅰ (MA-Ⅰ variable regions, human IgG1, Ck) (antibody)
heavy: not shown
light: DIVMTQTTLSLPVSPGDQASISCRSSQSLAHSNGNTYLHWYLQKPGQSPKLLIYKVSNRFSGVPDRFSGSGSGTDFTLKISRVEAEDLGVYFCSQSTLVPTFGGGTKLEIKRTVAAPSVFIFPPSDEQLKSGTASVVCLLNNFYPREAKVQWKVDNALQSGNSQESVTEQDSKDSTYSLSSTLTLSKADYEKHKVYACEVTHQGLSSPVTKSFNRGEC
notes: also called CA-I

IC50 of inhibition of ARG1 secretion by THP-1 cells with ApoE (arginase activity) [6]: 23.9 µg/mL | binding result [7]: no binding (tested: 50μg/mL) | binding result [8]: no binding (tested: 50μg/mL) | binding result [9]: no binding (tested: 50μg/mL) | binding result [10]: no binding (tested: 50μg/mL) | binding result [11]: no binding (tested: 50μg/mL) | binding result [12]: no binding (tested: 50μg/mL) | binding result [13]: no binding (tested: 50μg/mL) | binding result [14]: no binding (tested: 50μg/mL) | binding result [15]: no binding (tested: 50μg/mL) | binding result [16]: no binding (tested: 50μg/mL) | EC50 [17]: 0.00835 µg/mL | OD 450nm/630nm [18]: 2.97 OD | OD 450nm/630nm [19]: 0.12 OD | OD 450nm/630nm [20]: 0.083 OD | OD 450nm/630nm [21]: 0.068 OD | OD 450nm/630nm [22]: 0.092 OD | OD 450nm/630nm [23]: 0.077 OD | OD 450nm/630nm [24]: 0.054 OD | OD 450nm/630nm [25]: 0.064 OD | OD 450nm/630nm [26]: 0.036 OD | OD 450nm/630nm [27]: 0.072 OD | OD 450nm/630nm [28]: 0.197 OD | EC50 [29]: 0.306 µg/mL | IC50 [30]: 0.204 µg/mL
B8: MA-Ⅰ 鼠源抗LILRB4单克隆抗体 (mouse IgG1, Ck) (antibody)
heavy: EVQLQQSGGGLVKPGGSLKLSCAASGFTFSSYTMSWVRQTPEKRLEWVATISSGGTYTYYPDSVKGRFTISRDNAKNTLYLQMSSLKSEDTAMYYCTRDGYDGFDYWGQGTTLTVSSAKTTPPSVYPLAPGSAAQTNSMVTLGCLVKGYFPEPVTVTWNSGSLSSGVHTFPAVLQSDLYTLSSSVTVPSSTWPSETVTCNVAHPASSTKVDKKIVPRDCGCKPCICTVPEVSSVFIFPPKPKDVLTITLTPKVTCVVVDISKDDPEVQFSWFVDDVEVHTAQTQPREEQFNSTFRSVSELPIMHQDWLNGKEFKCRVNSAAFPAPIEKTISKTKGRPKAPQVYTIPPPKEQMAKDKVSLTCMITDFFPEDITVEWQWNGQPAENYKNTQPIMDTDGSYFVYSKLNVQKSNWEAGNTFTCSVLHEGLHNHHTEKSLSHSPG
light: DIVMTQTTLSLPVSPGDQASISCRSSQSLAHSNGNTYLHWYLQKPGQSPKLLIYKVSNRFSGVPDRFSGSGSGTDFTLKISRVEAEDLGVYFCSQSTLVPTFGGGTKLEIKADAAPTVSIFPPSSEQLTSGGASVVCFLNNFYPKDINVKWKIDGSERQNGVLNSWTDQDSKDSTYSMSSTLTLTKDEYERHNSYTCEATHKTSTSPIVKSFNRNEC
notes: also called MA-I; 鼠源抗体MA-Ⅰ
